Reference: article PMC11326647, “In vitro reconstitution reveals membrane clustering and RNA recruitment by the enteroviral AAA+ ATPase 2C” (PLOS Pathogens, 2023)

What was measured:
mass photometry = biological target: the molecule itself; assay: mass photometry
[1] = biological target: the molecule itself; assay: cryo-electron tomography (mass from the volume of segmented densities)
[2] = biological target: 2C (MBP removed by TEV in situ, bound to SUVs) (Poliovirus type 1 Mahoney, UniProt P03300 1128-1456); assay: SUV co-flotation, TET fluorescence; conditions: protein: recombinant; tags: His6-MBP cleaved by TEV during assay; chain copies: 6; label: 5' TET on strand 1; blunt

B1: His6-MBP-tagged full-length poliovirus 2C (residues 1-329) (natural protein)
chain: GDSWLKKFTEACNAAKGLEWVSNKISKFIDWLKEKIIPQARDKLEFVTKLRQLEMLENQISTIHQSCPSQEHQEILFNNVRWLSIQSKRFAPLYAVEAKRIQKLEHTINNYIQFKSKHRIEPVCLLVHGSPGTGKSVATNLIARAIAERENTSTYSLPPDPSHFDGYKQQGVVIMDDLNQNPDGADMKLFCQMVSTVEFIPPMASLEEKGILFTSNYVLASTNSSRISPPTVAHSDALARRFAFDMDIQVMNEYSRDGKLNMAMATEMCKNCHQPANFKRCCPLVCGKAIQLMDKSSRVRYSIDQITTMIINERNRRSNIGNCMEALFQ
notes: also called MBP-2C; His6MBP-2C
stoichiometry N (mass photometry): ~6

B2: full-length poliovirus 2C, MBP tag cleaved off in the presence of liposomes (membrane-bound 2C) (natural protein)
chain: GDSWLKKFTEACNAAKGLEWVSNKISKFIDWLKEKIIPQARDKLEFVTKLRQLEMLENQISTIHQSCPSQEHQEILFNNVRWLSIQSKRFAPLYAVEAKRIQKLEHTINNYIQFKSKHRIEPVCLLVHGSPGTGKSVATNLIARAIAERENTSTYSLPPDPSHFDGYKQQGVVIMDDLNQNPDGADMKLFCQMVSTVEFIPPMASLEEKGILFTSNYVLASTNSSRISPPTVAHSDALARRFAFDMDIQVMNEYSRDGKLNMAMATEMCKNCHQPANFKRCCPLVCGKAIQLMDKSSRVRYSIDQITTMIINERNRRSNIGNCMEALFQ
notes: also called full-length 2C
stoichiometry N [1]: ~6

B3: dsRNA 20-mer (oligos 1+2) (dsRNA)
RNA 1: CCUCUAACCACAGUCUGAUC
RNA 2: GAUCAGACUGUGGUUAGAGG
binding result [2]: binds
